# Measurements reported in patent publication US7276582 (JAPAN SCIENCE AND TECHNOLOGY AGENCY, dated 2007).
# Target: T1, GST (UniProt P08515 1-218 = GST, limits assumed)
# T1 construct: Control for the GST fusion proteins; its source is not described; also called GST alone; glutathione S-transferase
# Experiment: GST pull-down from mouse cerebellar cytosolic fraction, Western blot with anti-CARP antibody
# Description: Next, the inventors of the present application examined the interaction between CARP and IP_3R1 by means of a pull-down method in order to obtain further evidence for the interaction by biochemical methods. The inventors first developed expression system in Sf9 cells, and made IP_3R1 soluble by removing the channel domain. The soluble IP_3R1, designated GST-EL, covers both the ligand binding domain and modulatory domain (amino acids 1-2217 Of mIP_3R1) and has GST in its N terminus. Mouse cerebellar cytosolic fraction was incubated with GST-EL or GST, and binding of CARP to the recombinant proteins was analyzed by immunoblotting with anti-CARP antibody. The results are shown in photographs of FIG. 4 which are substituted for drawings.
# Adult mouse cerebella were homogenized in 10 mM HEPES (pH 7.4), 320 mM Sucrose, 2 mM EDTA, 1 mM 2-mercaptoethanol, and protease inhibitors and the homogenate was centrifuged at 1,000× g for 10 min. The supernatant was centrifuged at 100,000× g for 60 min to obtain the cytosolic fraction (the supernatant) and the crude microsome (the pellet). The cytosolic fraction was added with 100 mM NaCl, and incubated with 20 μg of GST-EL or GST for 2 hours at 4° C. […] The eluted proteins were analyzed by Western blotting with anti-CARP antibody.
# T1 sequence (P08515 whole entry, the tested form may be a part): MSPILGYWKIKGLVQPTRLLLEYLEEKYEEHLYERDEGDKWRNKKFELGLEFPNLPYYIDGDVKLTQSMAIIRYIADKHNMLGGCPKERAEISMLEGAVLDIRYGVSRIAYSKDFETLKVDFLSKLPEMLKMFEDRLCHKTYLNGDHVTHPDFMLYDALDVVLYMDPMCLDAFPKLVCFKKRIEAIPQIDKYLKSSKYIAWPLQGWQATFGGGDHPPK
row,binding result,Binder
1,no binding (tested: 20 µg of GST),"CARP of the cytosolic fraction of mouse cerebellum (other, Endogenous protein in a tissue fraction, detected by Western blotting with anti-CARP polyclonal antibody; also called endogenous CARP) MADLSFIEDAVAFPEKEEDEEEEEEEGVEWGYEEGVEWGLVFPDANGEYQSPINLNSREARYDPSLLDVRLSPNYVVCRDCEVTNDGHTIQVILKSKSVLSGGPLPGGQEFELYEVRFHWGRENQRGSEHTVNFKAFPMELHLIHWNSTLFGSIDEAVGKPHGIAIIALFVQIGKEHVGLKAVTEILQDIQYKGKSKTIPCFNPNTLLPDPLLRDYWVYEGSLTIPPCSEGVTWILFRYPLTISQMQIEEFRRLRTHVKGVELVEGCDGILGDNFRPTQPLSDRVIRAAFQ"

# Target: T2, MD2 bait construct (mIP3R1: 1387-1647 amino acids) in pGBT9 (mouse, UniProt P11881 1387-1647)
# T2 construct: also called IP3R1 modulatory domain bait 2; not shown: fusion partner encoded by the bait vector pGBT9 and primer-encoded linker
# T2 sequence (P11881 1387-1647): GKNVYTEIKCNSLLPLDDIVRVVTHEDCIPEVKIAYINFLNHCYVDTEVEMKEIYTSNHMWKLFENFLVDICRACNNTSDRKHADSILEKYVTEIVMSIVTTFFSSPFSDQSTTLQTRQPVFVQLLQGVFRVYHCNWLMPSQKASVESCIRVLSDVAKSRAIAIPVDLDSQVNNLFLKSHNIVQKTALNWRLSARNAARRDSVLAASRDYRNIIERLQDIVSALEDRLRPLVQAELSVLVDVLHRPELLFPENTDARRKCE
# Experiment: yeast two-hybrid screen of a mouse brain cDNA library with MD2 as bait
row,binding result,Binder
1,binds,"carbonic anhydrase-related protein (CARP), full-length, yeast two-hybrid prey in pGAD-GL (other, 13 positive clones from a mouse brain cDNA library; they contain different lengths of 5'UTR of CARP cDNA followed by a full-length coding region in frame; also called mouse CARP; not shown: fusion partner encoded by the library vector pGAD-GL (and in-frame 5'UTR of differing length); not described in the fili) MADLSFIEDAVAFPEKEEDEEEEEEEGVEWGYEEGVEWGLVFPDANGEYQSPINLNSREARYDPSLLDVRLSPNYVVCRDCEVTNDGHTIQVILKSKSVLSGGPLPGGQEFELYEVRFHWGRENQRGSEHTVNFKAFPMELHLIHWNSTLFGSIDEAVGKPHGIAIIALFVQIGKEHVGLKAVTEILQDIQYKGKSKTIPCFNPNTLLPDPLLRDYWVYEGSLTIPPCSEGVTWILFRYPLTISQMQIEEFRRLRTHVKGVELVEGCDGILGDNFRPTQPLSDRVIRAAFQ"

# Target: T2, MD2 bait construct (mIP3R1: 1387-1647 …)
# Experiment: yeast two-hybrid beta-gal assay
# Experimental: To determine the respective interaction domains of CARP and IP_3R1, truncated mutants of both genes were prepared and analyzed using yeast two-hybrid system. […] Interactions between CARP mutants and MD2, CARP and IP_3R1 mutants were analyzed by β-gal assay by the yeast two-hybrid system. The prepared mutant and results of β-gal assay in the yeast two-hybrid system (n=3) are shown in FIG. 5. β-gal assay was evaluated by the time of blue colony appearance, i.e., blue colony appears within 30 min (+++), 2 h (++) and 8 hr (+).
# Yeast two-hybrid assay in the following examples was conducted using MATCHJMAKER™ Two-Hybrid system according to the manufacturer's protocol (Clontech Laboratories Inc., Palo Alto, Calif., USA).
row,Binder,binding result
1,"pGAD-GL-ΔC5 (CARP; 1-217 amino acids) (other, Yeast two-hybrid truncation construct; not shown: fusion partner encoded by vector pGAD-GL) MADLSFIEDAVAFPEKEEDEEEEEEEGVEWGYEEGVEWGLVFPDANGEYQSPINLNSREARYDPSLLDVRLSPNYVVCRDCEVTNDGHTIQVILKSKSVLSGGPLPGGQEFELYEVRFHWGRENQRGSEHTVNFKAFPMELHLIHWNSTLFGSIDEAVGKPHGIAIIALFVQIGKEHVGLKAVTEILQDIQYKGKSKTIPCFNPNTLLPDPLLRDYW",no binding
2,"pGAD-GL-ΔC3 (CARP; 1-170 amino acids) (other, Yeast two-hybrid truncation construct; not shown: fusion partner encoded by vector pGAD-GL) MADLSFIEDAVAFPEKEEDEEEEEEEGVEWGYEEGVEWGLVFPDANGEYQSPINLNSREARYDPSLLDVRLSPNYVVCRDCEVTNDGHTIQVILKSKSVLSGGPLPGGQEFELYEVRFHWGRENQRGSEHTVNFKAFPMELHLIHWNSTLFGSIDEAVGKPHGIAIIALF",no binding
3,"pGAD-GL-ΔC2 (CARP; 1-147 amino acids) (other, Yeast two-hybrid truncation construct; not shown: fusion partner encoded by vector pGAD-GL) MADLSFIEDAVAFPEKEEDEEEEEEEGVEWGYEEGVEWGLVFPDANGEYQSPINLNSREARYDPSLLDVRLSPNYVVCRDCEVTNDGHTIQVILKSKSVLSGGPLPGGQEFELYEVRFHWGRENQRGSEHTVNFKAFPMELHLIHWN",no binding
4,"pGAD-GL-ΔC9 (CARP; 184-291 amino acids) (other, Yeast two-hybrid truncation construct; not shown: fusion partner encoded by vector pGAD-GL) TEILQDIQYKGKSKTIPCFNPNTLLPDPLLRDYWVYEGSLTIPPCSEGVTWILFRYPLTISQMQIEEFRRLRTHVKGVELVEGCDGILGDNFRPTQPLSDRVIRAAFQ",no binding

# More lines, now with the values ahead:
row,binding result,Binder
1,no binding,"pGAD-GL-ΔC1 (CARP; 1-127 amino acids) (other, Yeast two-hybrid truncation construct; not shown: fusion partner encoded by vector pGAD-GL) MADLSFIEDAVAFPEKEEDEEEEEEEGVEWGYEEGVEWGLVFPDANGEYQSPINLNSREARYDPSLLDVRLSPNYVVCRDCEVTNDGHTIQVILKSKSVLSGGPLPGGQEFELYEVRFHWGRENQRG"
2,no binding,"pGAD-GL-ΔC4 (CARP; 1-180 amino acids) (other, Yeast two-hybrid truncation construct; not shown: fusion partner encoded by vector pGAD-GL) MADLSFIEDAVAFPEKEEDEEEEEEEGVEWGYEEGVEWGLVFPDANGEYQSPINLNSREARYDPSLLDVRLSPNYVVCRDCEVTNDGHTIQVILKSKSVLSGGPLPGGQEFELYEVRFHWGRENQRGSEHTVNFKAFPMELHLIHWNSTLFGSIDEAVGKPHGIAIIALFVQIGKEHVGL"
3,no binding,"pGAD-GL-ΔC8 (CARP; 121-291 amino acids) (other, Yeast two-hybrid truncation construct; not shown: fusion partner encoded by vector pGAD-GL) GRENQRGSEHTVNFKAFPMELHLIHWNSTLFGSIDEAVGKPHGIAIIALFVQIGKEHVGLKAVTEILQDIQYKGKSKTIPCFNPNTLLPDPLLRDYWVYEGSLTIPPCSEGVTWILFRYPLTISQMQIEEFRRLRTHVKGVELVEGCDGILGDNFRPTQPLSDRVIRAAFQ"
4,no binding,"pGAD-GL-ΔC6 (CARP; 1-234 amino acids) (other, Yeast two-hybrid truncation construct; not shown: fusion partner encoded by vector pGAD-GL) MADLSFIEDAVAFPEKEEDEEEEEEEGVEWGYEEGVEWGLVFPDANGEYQSPINLNSREARYDPSLLDVRLSPNYVVCRDCEVTNDGHTIQVILKSKSVLSGGPLPGGQEFELYEVRFHWGRENQRGSEHTVNFKAFPMELHLIHWNSTLFGSIDEAVGKPHGIAIIALFVQIGKEHVGLKAVTEILQDIQYKGKSKTIPCFNPNTLLPDPLLRDYWVYEGSLTIPPCSEGVTW"
